Data published in patent US20260049138A1 (Chugai, published 2026).
Positions count from the first letter of the chain named. Names may count otherwise.

B1: GLS3000 H27dM one-arm antibody (antibody, human IgG1, kappa, L234A L235A, N297A, name in Kabat numbering)
heavy: QVQLVESGGGVVQPGRSLRLSCAASGFTFSNAWMHWVRQAPGKGLEWVAQIKAKSNNYATYYAESVKGRFTISRDDSKNSLYLQMNSLKTEDTAVYYCRYVHYGAYYGVDAWGQGTTVTVSSASTKGPSVFPLAPSSKSTSGGTAALGCLVKDYFPEPVTVSWNSGALTSGVHTFPAVLQSSGLYSLSSVVTVPSSSLGTQTYICNVNHKPSNTKVDKKVEPKSCDKTHTCPPCPAPEAAGGPSVFLFPPKPKDTLMISRTPEVTCVVVDVSHEDPEVKFNWYVDGVEVHNAKTKPREEQYASTYRVVSVLTVLHQDWLNGKEYKCKVSNKALPAPIEKTISKAKGQPREPQVYTLPPSRCELTKNQVSLSCAVKGFYPSDIAVEWESNGQPENNYKTTPPVLDSDGSFFLVSKLTVDKSRWQQGNVFSCSVMHEALHNHYTQKSLSLSPDYKDDDDK
chain: EPKSSDKTHTCPPCPAPELLGGPSVFLFPPKPKDTLMISRTPEVTCVVVDVSHEDPEVKFNWYVDGVEVHNAKTKPREEQYNSTYRVVSVLTVLHQDWLNGKEYKCKVSNKALPAPIEKTISKAKGQPREPQVCTLPPSRDELTKNQVSLWCLVKGFYPSDIAVEWESNGQPENNYKTTPPVLDSDGSFFLYSKLTVDKSRWQQGNVFSCSVMHEALHNRYTQKSLSLSP
light: DIVMTQSPLSLPVTPGEPASISCRSSQSLVMSNRNTYLHWYQQKPGQAPRLLIYKVSNRFSGVPDRFSGSGSGTDFTLKISRVEAEDVGVYYCGQGTQVPYTFGQGTKLEIKRTVAAPSVFIFPPSDEQLKSGTASVVCLLNNFYPREAKVQWKVDNALQSGNSQESVTEQDSKDSTYSLSSTLTLSKADYEKHKVYACEVTHQGLSSPVTKSFNRGEC
B2: GLS3000 H34K one-arm antibody (antibody, human IgG1, kappa, L234A L235A, N297A, name in Kabat numbering)
heavy: B1 heavy
chain: B1 chain
light: B1 light with M31H, H39K
B3: GLS3000 H34G one-arm antibody (antibody, human IgG1, kappa, L234A L235A, N297A, name in Kabat numbering)
heavy: B1 heavy
chain: B1 chain
light: B1 light with M31H, H39G
B4: GLS3000 H34P one-arm antibody (antibody, human IgG1, kappa, L234A L235A, N297A, name in Kabat numbering)
heavy: B1 heavy
chain: B1 chain
light: B1 light with M31H, H39P
B5: GLS3000 H34Q one-arm antibody (antibody, human IgG1, kappa, L234A L235A, N297A, name in Kabat numbering)
heavy: B1 heavy
chain: B1 chain
light: B1 light with M31H, H39Q
B6: GLS3000 H34T one-arm antibody (antibody, human IgG1, kappa, L234A L235A, N297A, name in Kabat numbering)
heavy: B1 heavy
chain: B1 chain
light: B1 light with M31H, H39T
B7: GLS3000 H34Y one-arm antibody (antibody, human IgG1, kappa, L234A L235A, N297A, name in Kabat numbering)
heavy: B1 heavy
chain: B1 chain
light: B1 light with M31H, H39Y
B8: GLS3000 H34R one-arm antibody (antibody, human IgG1, kappa, L234A L235A, N297A, name in Kabat numbering)
heavy: B1 heavy
chain: B1 chain
light: B1 light with M31H, H39R
B9: GLS3000 K50P one-arm antibody (antibody, human IgG1, kappa, L234A L235A, N297A, name in Kabat numbering)
heavy: B1 heavy
chain: B1 chain
light: B1 light with M31H, K55P
B10: GLS3000 H27dP one-arm antibody (antibody, human IgG1, kappa, L234A L235A, N297A, name in Kabat numbering)
heavy: B1 heavy
chain: B1 chain
light: B1 light with M31P
B11: GLS3000 H27dQ one-arm antibody (antibody, human IgG1, kappa, L234A L235A, N297A, name in Kabat numbering)
heavy: B1 heavy
chain: B1 chain
light: B1 light with M31Q
B12: GLS3000 H34N one-arm antibody (antibody, human IgG1, kappa, L234A L235A, N297A, name in Kabat numbering)
heavy: B1 heavy
chain: B1 chain
light: B1 light with M31H, H39N
B13: GLS3000 H27dS one-arm antibody (antibody, human IgG1, kappa, L234A L235A, N297A, name in Kabat numbering)
heavy: B1 heavy
chain: B1 chain
light: B1 light with M31S
B14: GLS3000 H27dT one-arm antibody (antibody, human IgG1, kappa, L234A L235A, N297A, name in Kabat numbering)
heavy: B1 heavy
chain: B1 chain
light: B1 light with M31T
B15: GLS3000 H34L one-arm antibody (antibody, human IgG1, kappa, L234A L235A, N297A, name in Kabat numbering)
heavy: B1 heavy
chain: B1 chain
light: B1 light with M31H, H39L
B16: GLS3000 H34E one-arm antibody (antibody, human IgG1, kappa, L234A L235A, N297A, name in Kabat numbering)
heavy: B1 heavy
chain: B1 chain
light: B1 light with M31H, H39E
B17: GLS3000 K50A one-arm antibody (antibody, human IgG1, kappa, L234A L235A, N297A, name in Kabat numbering)
heavy: B1 heavy
chain: B1 chain
light: B1 light with M31H, K55A
B18: GLS3000 H34V one-arm antibody (antibody, human IgG1, kappa, L234A L235A, N297A, name in Kabat numbering)
heavy: B1 heavy
chain: B1 chain
light: B1 light with M31H, H39V
B19: GLS3000 K50L one-arm antibody (antibody, human IgG1, kappa, L234A L235A, N297A, name in Kabat numbering)
heavy: B1 heavy
chain: B1 chain
light: B1 light with M31H, K55L
B20: GLS3000 K50G one-arm antibody (antibody, human IgG1, kappa, L234A L235A, N297A, name in Kabat numbering)
heavy: B1 heavy
chain: B1 chain
light: B1 light with M31H, K55G
B21: GLS3000 H34F one-arm antibody (antibody, human IgG1, kappa, L234A L235A, N297A, name in Kabat numbering)
heavy: B1 heavy
chain: B1 chain
light: B1 light with M31H, H39F
B22: GLS3000 H27dR one-arm antibody (antibody, human IgG1, kappa, L234A L235A, N297A, name in Kabat numbering)
heavy: B1 heavy
chain: B1 chain
light: B1 light with M31R
B23: GLS3000 H27dN one-arm antibody (antibody, human IgG1, kappa, L234A L235A, N297A, name in Kabat numbering)
heavy: B1 heavy
chain: B1 chain
light: B1 light with M31N
B24: GLS3000 H27dW one-arm antibody (antibody, human IgG1, kappa, L234A L235A, N297A, name in Kabat numbering)
heavy: B1 heavy
chain: B1 chain
light: B1 light with M31W
B25: GLS3000 H34W one-arm antibody (antibody, human IgG1, kappa, L234A L235A, N297A, name in Kabat numbering)
heavy: B1 heavy
chain: B1 chain
light: B1 light with M31H, H39W
B26: GLS3000 H34D one-arm antibody (antibody, human IgG1, kappa, L234A L235A, N297A, name in Kabat numbering)
heavy: B1 heavy
chain: B1 chain
light: B1 light with M31H, H39D
B27: GLS3000 H27dY one-arm antibody (antibody, human IgG1, kappa, L234A L235A, N297A, name in Kabat numbering)
heavy: B1 heavy
chain: B1 chain
light: B1 light with M31Y
B28: GLS3000 H34I one-arm antibody (antibody, human IgG1, kappa, L234A L235A, N297A, name in Kabat numbering)
heavy: B1 heavy
chain: B1 chain
light: B1 light with M31H, H39I
B29: GLS3000 K50E one-arm antibody (antibody, human IgG1, kappa, L234A L235A, N297A, name in Kabat numbering)
heavy: B1 heavy
chain: B1 chain
light: B1 light with M31H, K55E
B30: GLS3000 H34A one-arm antibody (antibody, human IgG1, kappa, L234A L235A, N297A, name in Kabat numbering)
heavy: B1 heavy
chain: B1 chain
light: B1 light with M31H, H39A
B31: GLS3000 H27dV one-arm antibody (antibody, human IgG1, kappa, L234A L235A, N297A, name in Kabat numbering)
heavy: B1 heavy
chain: B1 chain
light: B1 light with M31V
B32: GLS3000 K50D one-arm antibody (antibody, human IgG1, kappa, L234A L235A, N297A, name in Kabat numbering)
heavy: B1 heavy
chain: B1 chain
light: B1 light with M31H, K55D
B33: GLS3000 H34M one-arm antibody (antibody, human IgG1, kappa, L234A L235A, N297A, name in Kabat numbering)
heavy: B1 heavy
chain: B1 chain
light: B1 light with M31H, H39M
B34: GLS3000 H34S one-arm antibody (antibody, human IgG1, kappa, L234A L235A, N297A, name in Kabat numbering)
heavy: B1 heavy
chain: B1 chain
light: B1 light with M31H, H39S

Target: T1, CD3ε homodimer protein (human, UniProt P07766 23-126, limits assumed)
T1 construct: also called CD3 (CD3ε)
T1 sequence (P07766 23-126 limits assumed): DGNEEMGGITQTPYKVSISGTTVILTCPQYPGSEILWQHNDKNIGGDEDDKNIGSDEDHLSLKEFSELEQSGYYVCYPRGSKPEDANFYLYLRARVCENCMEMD
Experiment: SPR Biacore T200, CD3ε homodimer on chip;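 also: Light-chain single-residue variant antibodies injected over amine-coupled CD3ε homodimer on a CM4 chip at 25 °C, bound amount divided by that of the GLS3000-containing antibody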

ratio of amount bound vs unaltered GLS3000	Binder
0.3	B1
2.17	B2
1.02	B3
0.34	B4
0.25	B5
0.89	B6
0.59	B7
0.2	B8
0.3	B9
0.24	B10
0.25	B11
0.65	B12
0.32	B13
0.29	B14
0.59	B15
0.23	B16
0.23	B17

ratio of amount bound vs unaltered GLS3000	Binder
0.85	B18
0.24	B19
0.16	B20
0.27	B21
0.31	B22
0.3	B23
0.39	B24
0.24	B25
0.22	B26
0.64	B27
0.65	B28
0.24	B29
1.06	B30
0.3	B31
0.22	B32
0.35	B33
0.78	B34
